Measured values taken from patent publication US20230071765A1, “COMPOSITIONS HAVING THIOREDOXIN ACTIVITY AND RELATED METHODS” (ORPRO THERAPEUTICS, INC., priority 2020, published 2023).

Experiments:
[1] = tested on: CF patient sputum on wild type rat trachea; assay: CF sputum transport ex vivo on excised rat trachea (μOCT); parameters: species or system human sputum; settings: sputum treated 2 hrs; ORP100S 3 mM, DTT 1.6 mM, DNase 10 or 25 μg/ml; PBS 0.97±0.17
Experimental: To determine the effect of ORP100S on CF sputum transportability, sputum specimens spontaneously expectorated from 4 CF patients hospitalized for pulmonary exacerbation were collected and stored at 4° C. before being divided into 200 μL aliquots and treated with ORP100S (3 mM), PBS, DTT (1.6 mM), or DNase (10 or 25 μg/ml) on the day of or day following collection. Upon treatment, sputum aliquots were placed in a 37° C. water bath for 2 hrs and then applied (3 μl per sample) for μOCT imaging to the distal end of trachea excised from adult non-CF rats. Trachea were washed 2× with 500 μl of PBS before sputum addition. Sample conditions were applied in triplicate in random order at distinct anatomic locations—2 washes using 500 μl of PBS were performed between each sample addition—and at least 3 images were collected from each region of interest. Confirmation of trachea viability was obtained by imaging with PBS upon completion of the experiment.
One-micron resolution spectral domain μOCT was used to obtain measurements of mucociliary transport (MCT) rate and ciliary beat frequency (CBF) in HBE monolayers and of MCT rate of sputum ex vivo. This first-in-kind, high-speed (40 frames per second, 512 lines per frame) microscopic reflectance imaging modality enables simultaneous anatomic imaging in cell cultures and intact tissues that readily distinguishes the properties of CF compared to normal epithelia (Liu L, Chu K K, Houser G H, Diephuis B J, Li Y, Wilsterman E J, Shastry S, Dierksen G, Birket S E, Mazur M, et al., 2013, Method for quantitative study of airway functional microanatomy using micro-optical coherence tomography, PLoS One 8(1):e54473; Tuggle K L, Birket S E, Cui X, Hong J, Warren J, Reid L, Chambers A, Ji D, Gamber K, Chu K K, et al., 2014, Characterization of defects in ion transport and tissue development in Cystic Fibrosis Transmembrane Conductance Regulator (CFTR)-knockout rats. PLoS One 9(3):e91253). In addition to MCT rate and CBF, μOCT also has the capability to assess physical characteristics of the airway surface liquid. Images were captured, and MCT rate and CBF calculated, as described in the preceding references.
The effect of ORP100S on mucus clearance using intact rat trachea, which include the complexities of the airway surface such as gland expression of a fully differentiated mucosal surface, was further evaluated. […] MCT was measured by projecting a cross-sectional line through the mucus through time, with the slope of the particle trajectories indicating velocity. […]

pediatric patients = settings: human, in vivo; cited from earlier work

B1: DNase: recombinant human DNase I (protein, UniProt P24855 23-282, looked up)
Deoxyribonuclease-1: LKIAAFNIQTFGETKMSNATLVSYIVQILSRYDIALVQEVRDSHLTAVGKLLDNLNQDAPDTYHYVVSEPLGRNSYKERYLFVYRPDQVSAVDSYYYDDGCEPCGNDTFNREPAIVRFFSRFTEVREFAIVPLHAAPGDAVAEIDALYDVYLDVQEKWGLEDVMLMGDFNAGCSYVRPSQWSSIRLWTSPTFQWLIPDSADTTATPTHCAYDRIVVAGMLLRGAVVPDSALPFNFQAAYGLSDQLAQAISDHYPVEVMLK
Q: With B1 as the molecule, how does the “MCT rate of treated sputum” value [1] read?
A: 2.30±0.28 mm/min

Q: What about the “pediatric patients with clinical deterioration in lung function” value (pediatric patients) of the same molecule?
A: 6-30%
